{
  "source": "patent US20260055187A1",
  "about": "(SANTA ANA BIO, published 2026)",
  "binders": {"B1": {"name": "PD-1 antibody 1-33 (antibody, V domains shown)", "VH": "QVQLVQSGAEVKKPGASVRVSCKASGYTLTSYYIHWVRQAPGQGLEWMGIINPRGATISYAQKFQGRVTMTRDTSTSTVYMELRNLKSEDTALYYCATAGIYGFDFDYWGRGTLVTVSS", "VL": "QSALTQPASVSGSPGQSITISCTGTSNDVGGYNYVSWYQHHPGKAPKLIIYDVTNRPSGVSDRFSGSKSGNTASLTISGLLAEDEGDYYCSSYTIVTNFEVLFGGGTKLTV", "notes": "detection used an anti-human IgG secondary antibody"}, "B2": {"name": "PD-1 antibody 1B8 (antibody, V domains shown)", "VH": "EVQLVLSGGGFVQPGGSLKLSCAASGFTFSSYAMSWVRQNPERRLVWVATITGGGRNTYYPDSVKGRFTISRDNAKNTLYLQMSSLRSEDTAMYYCTRQGYDGYTWFAYWGQGTLVTVS", "VL": "not shown", "notes": "detection used an anti-human IgG secondary antibody; also called Murine 1B8"}, "B3": {"name": "PD-1 antibody 2.3A9 (antibody, V domains shown)", "VH": "QVQLQQSDAELVKPGTSVKISCKASGYTFTDHAIHWLKQEPDQGLEWIGYISPGYGDIEYNEKFKGKATLTADKSSSTAYMQLSSLTSEDSAVYFCKVTTGYWGQGTTLTVS", "VL": "not shown", "notes": "detection used an anti-human IgG secondary antibody; also called Murine 2.3A9"}, "B4": {"name": "PD-1 antibody 3H4 (antibody, V domains shown)", "VH": "QIQLQQSGPELVKPGASVKISCKASGYTFTDYYINWVKQKPGQGLEWIGWIYPGSVNTKYNEKFRGKATLTVDTSSSTAYIQLSGLTSEDTAVYFCARYSNWFFDVWGAGTAVTVS", "VL": "DIVMTQSPSSLSASLGERVSLTCRASQEISGYLSWLQQKPDGTIKRLIYAASTLDSGVPKRFSGSRSGSDYSLSISSLESEDFADYYCLQYASYPYTFGGGTKLEIKR", "notes": "detection used an anti-human IgG secondary antibody; also called Murine 3H4"}, "B5": {"name": "PD-1 antibody 1-35 (antibody, V domains shown)", "VH": "QVQLQESGPGLVKPSQTLSLTCTVSGGSISSGAYYWSWIRQHPGKGLEWIGYIYYNGNTYYNPSLRSLVTISVDASKNQFSLKLSSVTAADTAVYYCARASDYVWGGYRYMDAFDIWGRGTLITVSS", "VL": "not shown", "notes": "as for B1"}, "B6": {"name": "PD-1 antibody 1-28 (antibody, V domains shown)", "VH": "EVQLVQSGAEVKKPGASVKVSCKASGYRFTSYGISWVRQAPGQGLEWMGWISAYNGNTNYAQKLQGRVTMTTDTSTNTAYMELRSLRSDDTAVYYCARDADYSSGSGYWGQGTLVTVSS", "VL": "SYELTQPPSVSVSPGQTARITCSGDALPKQYAYWYQQKPGQAPVMVIYKDTERPSGIPERFSGSSSGTKVTLTISGVQAEDEADYYCQSADNSITYRVFGGGTKVTVL", "notes": "as for B1"}, "B7": {"name": "PD-1 antibody 1-17 (antibody, V domains shown)", "VH": "QVQLQESGPGVVKPSGTLSLTCAISGGSIGSGGSIRSTRWWSWVRQSPGKGLEWIGEIYHSGSTNYNPSLKSRVTISLDKSRNHFSLRLNSVTAADTAVYYCARQDYGDSGDWYFDLWGKGTMVTVSS", "VL": "NFMLTQPHSVSESPGKTVTISCTRSSGSIASNSVQWYQQRPGSSPTTVIYEDNQRPSGVPDRFSGSIDSSSNSASLTVSGLKTEDEADYYCQSSDSSAVVFGSGTKLTVL", "notes": "as for B1"}, "B8": {"name": "PD-1 antibody 20B3.1 (antibody, V domains shown)", "VH": "EVKLVESGGGLVKPGGSLKLSCAASGFTFSSFGMSWVRQTPEKRLEWVATISGGGSNTYYPDSVKGRFTISRDNAKNNLYLQMTSLTSEDTALYYCTRIYDVAWFAYWGQGTLVTVS", "VL": "not shown", "notes": "detection used an anti-human IgG secondary antibody; also called Murine 20B3.1"}},
  "data": [
    {"biological_target": "T1, CTLA-4 extracellular domain (PD-1 family member) (UniProt P16410 36-161, limits assumed)", "T1 construct": "extracellular domain; not shown: His tag", "T1 sequence (looked up)": "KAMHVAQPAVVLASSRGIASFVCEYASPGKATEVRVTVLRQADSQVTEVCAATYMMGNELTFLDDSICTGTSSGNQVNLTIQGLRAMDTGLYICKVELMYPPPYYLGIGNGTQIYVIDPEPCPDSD", "assay": "ELISA, His-tagged extracellular domain on plate", "description": "(§1) His-tagged extracellular domains of human PD-1, cynomolgus PD-1, and PD-1 family members ICOS, CD28, and CTLA-4 extracellular domains were immobilized on 96 well ELISA plates. Plates were washed with PBST (phosphate buffered saline+0.05% Tween 20) and blocked for 1 hour with 1% BSA in PBS. Following washing with PBST, test PD-1 antibodies were added to the coated plate and incubated for 2 hours at room temperature. Plates were washed and incubated with HRP-conjugated goat anti-human IgG secondary antibody for 1 hour at room temperature. Following washing, antibody binding was detected colorimetrically by adding 3,3′,5,5′-tetramethylbenzidine (TMB) and incubated at room temperature for 10-20 minutes before adding 2.5N sulfuric acid stopping solution. Absorbance at 450 nm was measured on a plate reader (PerkinElmer). Data was analyzed using Graph-Pad Prism.", "values": [
      {"binder": "B1", "binding result": "no binding"},
      {"binder": "B2", "binding result": "no binding"},
      {"binder": "B3", "binding result": "no binding"},
      {"binder": "B4", "binding result": "no binding"},
      {"binder": "B5", "binding result": "no binding"},
      {"binder": "B6", "binding result": "no binding"},
      {"binder": "B7", "binding result": "no binding"},
      {"binder": "B8", "binding result": "no binding"}
    ]},
    {"biological_target": "T2, CD28 extracellular domain (PD-1 family member) (UniProt P10747 19-152, limits assumed)", "T2 construct": "extracellular domain; not shown: His tag", "T2 sequence (P10747 19-152 limits assumed)": "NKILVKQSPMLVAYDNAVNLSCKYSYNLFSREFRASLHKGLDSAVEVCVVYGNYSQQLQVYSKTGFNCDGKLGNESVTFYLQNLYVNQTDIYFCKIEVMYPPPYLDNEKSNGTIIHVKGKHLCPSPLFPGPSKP", "assay": "ELISA, His-tagged extracellular domain on plate", "description": "as §1", "values": [
      {"binder": "B1", "binding result": "no binding"},
      {"binder": "B2", "binding result": "no binding"},
      {"binder": "B3", "binding result": "no binding"},
      {"binder": "B4", "binding result": "no binding"},
      {"binder": "B5", "binding result": "no binding"},
      {"binder": "B6", "binding result": "no binding"},
      {"binder": "B7", "binding result": "no binding"},
      {"binder": "B8", "binding result": "no binding"}
    ]},
    {"biological_target": "T3, ICOS extracellular domain (PD-1 family member) (UniProt Q9Y6W8 21-140, limits assumed)", "T3 construct": "extracellular domain; not shown: His tag", "T3 sequence (looked up)": "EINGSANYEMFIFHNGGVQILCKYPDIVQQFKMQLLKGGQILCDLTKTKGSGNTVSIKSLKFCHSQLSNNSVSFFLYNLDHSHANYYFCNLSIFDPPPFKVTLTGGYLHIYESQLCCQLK", "assay": "ELISA, His-tagged extracellular domain on plate", "description": "as §1", "values": [
      {"binder": "B1", "binding result": "no binding"},
      {"binder": "B2", "binding result": "no binding"},
      {"binder": "B3", "binding result": "no binding"},
      {"binder": "B4", "binding result": "no binding"},
      {"binder": "B5", "binding result": "no binding"},
      {"binder": "B6", "binding result": "no binding"},
      {"binder": "B7", "binding result": "no binding"},
      {"binder": "B8", "binding result": "no binding"}
    ]},
    {"biological_target": "T4, PD-1 biotin (UniProt Q15116 25-167, limits assumed, biotin (site not stated))", "T4 construct": "also called biotinylated PD-1", "T4 sequence (Q15116 25-167 limits assumed)": "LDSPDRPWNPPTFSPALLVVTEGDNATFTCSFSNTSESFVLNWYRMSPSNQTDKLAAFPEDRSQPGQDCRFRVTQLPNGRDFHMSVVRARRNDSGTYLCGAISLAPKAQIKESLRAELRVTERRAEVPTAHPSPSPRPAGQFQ", "assay": "PD-1/PD-L1 blocking ELISA, interpolated on a standard curve of a PD-1 neutralizing antibody", "description": "The ability of disclosed PD-1 antibodies to block the PD-1/PD-L1 interaction was assessed using an ELISA based assay.\nBriefly, human PD-L1 was immobilized on 96 well ELISA plates. Plates were washed and blocked for 1.5 hours at 37° C. with block buffer. Plates were washed and test PD-1 antibodies, isotype controls, or a standard curve of PD-1 neutralizing antibody were added to the coated plate and incubated for 1 hour at 37° C. […] Following washing, streptavidin-HRP was added to the plate and the plate was incubated at 37° C. for 1 hour. After a final wash, antibody binding was detected colorimetrically by adding a subrate solution and incubating for 20 minutes protected from light before adding stop solution. Absorbance at 450 nm was measured on a plate reader (PerkinElmer). Data was analyzed using GraphPad Prism.\nPercent blocking of tested PD-1 antibodies was determined by interpolating values obtained from each sample against the standard control curve (see FIG. 1) and summarized in Table 4.", "units": {"Percent Blocking": "percent"}, "values": [
      {"binder": "B1", "Percent Blocking": 68},
      {"binder": "B2", "Percent Blocking": 90},
      {"binder": "B3", "Percent Blocking": 0},
      {"binder": "B4", "Percent Blocking": 46},
      {"binder": "B5", "Percent Blocking": 58},
      {"binder": "B6", "Percent Blocking": 87},
      {"binder": "B7", "Percent Blocking": 7},
      {"binder": "B8", "Percent Blocking": 94}
    ]}
  ]
}
